Tests used:
[1] = molecular target: T1, 小鼠c-Met (mouse c-Met) (mouse, UniProt P16056 25-1379, limits assumed); assay: not described; stated in the results of the xenograft example as the reason why tolerability could not be assessed
T1 construct: Endogenous mouse protein in the host animals; no construct described

[2] = molecular target: T2, 小鼠EGFR (mouse EGFR) (mouse, UniProt Q01279 25-1210, limits assumed); assay: as above
T2 construct: Endogenous mouse protein in the host animals; no construct described

T1 sequence (P16056 25-1379 limits assumed): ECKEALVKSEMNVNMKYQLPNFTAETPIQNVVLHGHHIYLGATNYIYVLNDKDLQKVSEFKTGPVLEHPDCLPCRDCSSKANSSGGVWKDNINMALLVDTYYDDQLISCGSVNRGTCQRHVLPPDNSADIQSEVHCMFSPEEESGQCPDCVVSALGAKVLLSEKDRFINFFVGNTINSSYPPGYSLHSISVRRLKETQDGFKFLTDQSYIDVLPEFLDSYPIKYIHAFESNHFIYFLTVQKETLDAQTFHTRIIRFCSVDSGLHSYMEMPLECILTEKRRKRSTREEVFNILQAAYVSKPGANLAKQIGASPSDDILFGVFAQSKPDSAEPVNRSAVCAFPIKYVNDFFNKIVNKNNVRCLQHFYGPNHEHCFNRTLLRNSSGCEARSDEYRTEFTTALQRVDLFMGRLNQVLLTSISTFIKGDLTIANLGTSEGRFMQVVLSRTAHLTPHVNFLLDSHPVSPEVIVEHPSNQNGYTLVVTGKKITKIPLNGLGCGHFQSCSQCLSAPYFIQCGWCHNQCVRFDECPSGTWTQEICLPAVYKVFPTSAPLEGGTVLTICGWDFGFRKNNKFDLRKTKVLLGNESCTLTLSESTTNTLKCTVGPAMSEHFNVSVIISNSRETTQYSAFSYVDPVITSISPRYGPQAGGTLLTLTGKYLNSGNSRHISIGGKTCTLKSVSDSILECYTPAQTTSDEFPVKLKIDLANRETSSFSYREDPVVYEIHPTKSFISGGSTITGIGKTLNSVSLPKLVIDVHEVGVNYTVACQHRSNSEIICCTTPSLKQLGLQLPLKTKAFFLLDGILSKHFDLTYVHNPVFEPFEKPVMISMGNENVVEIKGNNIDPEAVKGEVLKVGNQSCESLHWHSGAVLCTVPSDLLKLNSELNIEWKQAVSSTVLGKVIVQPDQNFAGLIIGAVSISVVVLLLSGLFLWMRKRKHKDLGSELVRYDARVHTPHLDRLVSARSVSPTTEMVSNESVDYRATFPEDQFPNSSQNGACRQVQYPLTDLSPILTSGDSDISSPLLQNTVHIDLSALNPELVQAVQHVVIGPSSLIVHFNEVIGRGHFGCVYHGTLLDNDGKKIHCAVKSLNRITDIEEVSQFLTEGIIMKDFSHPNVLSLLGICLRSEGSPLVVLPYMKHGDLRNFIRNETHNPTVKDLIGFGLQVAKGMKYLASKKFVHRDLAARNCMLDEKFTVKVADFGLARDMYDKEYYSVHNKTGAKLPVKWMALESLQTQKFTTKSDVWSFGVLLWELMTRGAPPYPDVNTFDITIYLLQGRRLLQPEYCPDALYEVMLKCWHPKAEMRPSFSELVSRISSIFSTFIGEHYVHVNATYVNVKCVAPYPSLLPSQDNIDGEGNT

B1: JNJ-61186372 (bispecific antibody, human IgG1, kappa)
heavy 1: not shown
light 1: not shown
heavy 2: not shown
light 2: DIQMTQSPSSVSASVGDRVTITCRASQGISNWLAWFQHKPGKAPKLLIYAASSLLSGVPSRFSGSGSGTDFTLTISSLQPEDFATYYCQQANSFPITFGQGTRLEIKRTVAAPSVFIFPPSDEQLKSGTASVVCLLNNFYPREAKVQWKVDNALQSGNSQESVTEQDSKDSTYSLSSTLTLSKADYEKHKVYACEVTHQGLSSPVTKSFNRGEC
notes: also called CNTO4424
[1]
  binding result: no binding
[2]
  binding result: no binding

— patent CN113840601A (dated 2021)
